T1: His-tagged mouse CD38 (ACRO Biosystems #CD8-M5223) (mouse, UniProt P56528 45-304)
T1 construct: bought recombinant protein with His tag; also called Murine
T1 sequence (looked up): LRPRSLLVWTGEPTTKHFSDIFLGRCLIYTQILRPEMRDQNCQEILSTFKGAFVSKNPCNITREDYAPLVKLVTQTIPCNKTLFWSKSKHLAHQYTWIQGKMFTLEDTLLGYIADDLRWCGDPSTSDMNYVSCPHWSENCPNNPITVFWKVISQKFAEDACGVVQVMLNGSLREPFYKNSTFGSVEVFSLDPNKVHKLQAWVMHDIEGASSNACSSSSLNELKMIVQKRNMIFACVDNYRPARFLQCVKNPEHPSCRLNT

T2: murine CD38 on transiently transfected Expi293 cells (Origene MC208001) (murine, UniProt P56528 1-304)
T2 construct: whole, on cells; also called Murine (FACs)
T2 sequence (looked up): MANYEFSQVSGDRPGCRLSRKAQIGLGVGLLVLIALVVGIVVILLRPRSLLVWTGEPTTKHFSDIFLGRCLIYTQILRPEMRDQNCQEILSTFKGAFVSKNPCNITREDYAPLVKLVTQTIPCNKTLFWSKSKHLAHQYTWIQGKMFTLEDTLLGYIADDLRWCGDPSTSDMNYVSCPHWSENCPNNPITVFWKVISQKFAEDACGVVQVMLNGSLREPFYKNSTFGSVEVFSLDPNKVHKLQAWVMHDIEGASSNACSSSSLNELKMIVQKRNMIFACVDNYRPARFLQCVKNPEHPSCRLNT


What was measured:
[1] = target: T3, His-tagged human CD38 (ACRO Biosystems cat #CD8-H5224) (human, UniProt P28907 43-300); assay: SPR, captured scFv-Fc, His-CD38 analyte;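 note: SPR on a Carterra LSA, scFv-Fc captured by anti-human Fc on HC30M chip, His-tagged CD38 (human, mouse, cynomolgus) flowed as analyte in eight 1:2 steps from 400 nM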
T3 construct: bought recombinant protein with His tag

[2] = target: T4, His-tagged cynomolgus monkey CD38 (ACRO Biosystems cat #CD8-05223) (cynomolgus monkey, UniProt Q5VAN0 43-301); assay: SPR, captured scFv-Fc, His-CD38 analyte;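 note: SPR on a Carterra LSA, scFv-Fc captured by anti-human Fc on HC30M chip, His-tagged CD38 (human, mouse, cynomolgus) flowed as analyte in eight 1:2 steps from 400 nM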
T4 construct: bought recombinant protein with His tag

[3] = target: T1, His-tagged mouse CD38 (ACRO Biosystems …); assay: SPR, captured scFv-Fc, His-CD38 analyte;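 note: SPR on a Carterra LSA, scFv-Fc captured by anti-human Fc on HC30M chip, His-tagged CD38 (human, mouse, cynomolgus) flowed as analyte in eight 1:2 steps from 400 nM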
[4] = target: T3, His-tagged human CD38 (ACRO Biosystems …); assay: ELISA, coated His-CD38
[5] = target: T4, His-tagged cynomolgus monkey CD38 (ACRO …); assay: ELISA, coated His-CD38
[6] = target: T1, His-tagged mouse CD38 (ACRO Biosystems …); assay: ELISA, coated His-CD38
[7] = target: T5, human CD38 on transiently transfected Expi293 cells (Origene #SC321273) (human, UniProt P28907 1-300); assay: flow cytometry, transfected Expi293 cells;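 note: antibody binding to Expi293 cells transiently expressing human or murine CD38, antibodies applied at 10 ug/ml for 60 min on ice, read by flow cytometry as percent gated cells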
T5 construct: whole, on cells; also called Human (FACs)

[8] = target: T2, murine CD38 on transiently transfected …; assay: flow cytometry, transfected Expi293 cells;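 note: antibody binding to Expi293 cells transiently expressing human or murine CD38, antibodies applied at 10 ug/ml for 60 min on ice, read by flow cytometry as percent gated cells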

Binder | Kd [1] [nM] | Kd [2] [nM] | Kd [3] [nM] | ELISA 1 ug/ml [4] | ELISA 1 ug/ml [5] | ELISA 1 ug/ml [6] | FACs 10 ug/ml (percent gated) [7] [%] | FACs 10 ug/ml (percent gated) [8] [%]
40617p1.2.A3 (scFv, V domains shown, tested as scFv-Fc supernatant) VH: EVQLLESGGGLVQPGGSLRLSCAASGFTFSNYWMTWVRQAPGKGLEWVSAISSYGGNYIYYADSVKGRFTISRDNSKDTLYLQMNSLRAEDTAVYYCAKDWDDGMDVWGQGTTVTVSS VL: EIVMTQSPAVLSVSPGERATLSCRASQSVNSKLAWYQQKPGQAPRLLIYGASTRAAGIPDRFSGSGSGTDFTLTISSPQSEDFAVYYCQHYYDLPPYSFGGGTKVEIK | 28.1 | 92.8 | 75.5 | 1.75 | 1.7 | 0.745 | 70.3 | 69.4
40617p1.2.A1 (scFv, V domains shown, tested as scFv-Fc supernatant) VH: EVQLLESGGGLVQPGGSLRLSCAASGFTFSSYWMTWVRQAPGKGLEWVSAISSYGGQYTYYADSVKGRFTISRDNSKDTLYLHMDSLRAEDTAVYYCAKDWDDGMDVWGQGTTVTVSS VL: EIVMTQSPAVLSVSPGERATLSCRASQSVNIKLAWYQQKPGQAPRLLIYGASTRAAGIPDRFSGSGSGTDFTLTISSLQSDDFAVYYCQQYYDLPPYSFGGGTKVEIK | 82.9 | 77.9 | 108 | 1.57 | 1.67 | 1.13 | 78.8 | 67.9
40617p1.2.H8 (scFv, V domains shown, tested as scFv-Fc supernatant) VH: EVQLLESGGGLVQPGGSLRLSCAASGFTFSSYWMTWVRQAPGKGLEWVSAISSYGGNYMYYADSVKGRFTISRDNSKDTLYLQMNSLRAEDTAVYYCAKDWDDGMDVWGQGTTVTVSS VL: EIVMTQSPATLSVSPGDRATLSCRASQSVNSKLAWYQQKPGQAPRLLIYAASSRATGIPDRFSGSGSGTDFTLTISRLEPEDFAVYYCQQYYDLPPYSFGGGTKVEIK | 60.7 | 39.3 | 154 | 1.77 | 2.17 | 1.5 | 67.8 | 68.4
40617p1.2.H1 (scFv, V domains shown, tested as scFv-Fc supernatant) VH: EVQLLESGGGLVQPGGSLRLSCAASGFTFTNYWMTWVRQAPGKGLEWVSAISSYGGNYMYYADSVKGRFTISRDNSENTLYLQMNSLRAEDTAVYYCAKDWDDGMDVWGQGTTVTVSS VL: EIVMTQSPAVLSVSPGERATLSCRASQTVGSKLAWYQQKPGQAPRLLIYGVSTRAAGIPDRFSGSGSGTDFTLTISSLQSEDFAVYYCQQYYDLPPYSFGGGTKVEIK | 12.5 | 30.6 | 39.4 | 1.81 | 1.83 | 1.05 | 69.5 | 68.5
40596p1.F6 (scFv, V domains shown, tested as scFv-Fc supernatant) VH: EVQLLESGGGLVQPGGSLRLSCAASGFDFSKNAMSWVRQAPGKGLEYVAGSGWSGSFIFYADSVKGRFTVSRDNSENTLYLQMSSLRAEDTAVYYCAKNPGFGEMDVWGQGTTVTVSS VL: EIVLTQSPGSLFLSPGERATLTCRASQTIGSNLAWYQQKFGQAPRLLIYGASTRAADIPDRFSGSGSGTEFTLTISSLQSEDFAVYYCQQYNSWPPLTFGGGTKVEIK | 84.7 | 98.4 | 10.8 | 1.91 | 1.87 | 1.9 | 72.8 | 68.6
40596p1.B1 (scFv, V domains shown, tested as scFv-Fc supernatant) VH: EVQLLESGGGLVEPGGSLRLSCAASGFDFSTYAMTWVRQAPGKGLEWVAGNGWSGSFIYYADSVKGRFTISRDNSKNTLYLQMNSLRAEDTAVYYCTRNPGFGEMDVWGQGTTVTVSS VL: EIVLTQSPGTLRLSPGERATLSCKASQTVGTTLAWYQQKPGQAPRLLIYGASTRATGIPDRFSGSGSGTEFTLTISSLQSEDFADYYCQQYKSWPPLTFGGGTKVEIK | 46600 | 110 | 9070 | 1.79 | 1.99 | 1.76 | 66.1 | 45.4

Continued, values first:

Kd [1] [nM] | Kd [2] [nM] | Kd [3] [nM] | ELISA 1 ug/ml [4] | ELISA 1 ug/ml [5] | ELISA 1 ug/ml [6] | FACs 10 ug/ml (percent gated) [7] [%] | FACs 10 ug/ml (percent gated) [8] [%] | Binder
54400 | 0.106 | 675000 | 1.67 | 1.78 | 0.049 | 69.9 | 3.09 | 40769p1.1.A4 (scFv, V domains shown, tested as scFv-Fc supernatant) VH: EVQLLESGGGLVQPGGSLRLSCTASGITFSRFNMFWVRQAPGKGLEFVASIRDDGSWTYYADSVKGRFTISRDNSKNTLYLQMNSLRAEDTAVYYCAKDYNSKDFIYHYVMDVWGQGTTVTVSS VL: QSVLTQPPSASGTPGQRVTISCSGRNSNIGNNVVNWYQQLPGTAPKLLIYKDDQRPSGVPDRFSGSKSGTSASLAISGLQSEDEADYYCSTWDDSLNGWVFGGGTKLTVL
10900 | 4.82 | 7.59 | 1.75 | 1.8 | 1.88 | 19.5 | 72.1 | 40566p1.F8 (scFv, V domains shown, tested as scFv-Fc supernatant) VH: DVQLVESGGGVVRPGESLRLSCAASGFTFDNYDMTWVRQAPGEGLEWVSFISSRGTFAYYTDSVKGRFTISRDNSKNTLYLQMNSLRAEDTAIYYCTKDSGEYYFFDYWGLGTLVTVSS VL: EIVMTQSPATLSVSPGERATFSCRASQSVNSKLAWYQQKPGQAPRLLIYGASRRATGIPDRFSGSGSGTEFTLTISSLQSEDFAVYYCQQYYDWPPLTFGGGTKVEIK
1.43 | 18 | 56300 | 1.7 | 1.68 | 1.14 | 86.3 | 4.81 | 40769p1.2.B10 (scFv, V domains shown, tested as scFv-Fc supernatant) VH: EVQLLESGGGLVQPGGSLRLSCPASGFDFSSYWMTWVRQAPGKGLEWVSTITDSGGRAWYADSVRGRFTISRDNSKNTLYLQMNSLRAEDTAVYYCARDTPKTYYYYAMDVWGQGTTVTV VL: QSALTQPPSASGTPGQRVTISCSGSSSNIQYSYVSWYQQLPGTAPKLLIYNNVQRPSGVPDRFSGSKSGTSASLAISGLQSEDEADYYCATWDESLLGLWVFGGGTKLTVL
75.8 | 13.6 | 6.82 | 1.88 | 1.97 | 1.81 | 72.8 | 68.7 | 40596p1.A5 (scFv, V domains shown, tested as scFv-Fc supernatant) VH: EVQLLESGGGLVQPGGSLRLSCAASGFDFSNNAMSWVRQAPGKGLEYVAGSGWSGSFIFYADSVKGRFTVSRDNSENTLYLQMNSLRAEDTAVYYCAKNPGFGEMDVWGQGTTVTVSS VL: EIVLTQSPGSLSLSPGERATLRCRASQSIGSNLAWYQQKPGQAPSLLIYGASTRAADIPDRFSGSGSGTEFTLTITSLQSEDFAVYYCQQYNSWPPLTFGGGTKVEIK
67.8 | 56.3 | 20.8 | 1.84 | 1.89 | 1.74 | 68 | 59 | 40596p1.G10 (scFv, V domains shown, tested as scFv-Fc supernatant) VH: EVQLLESGGGLVQPGGSLRLSCAAPGFDFSKNAMSWVRQAPGKGLEYVAGSGWSGSFIFYADSVKGRFTVSRDNSENTLYLQMSSLRAEDTAVYYCAKNPGFGEMDVWGQGTTVTVSS VL: EIVLTQSPGSLFLSPGERATLTCRASQTIGSNLAWYQQKFGQAPRLLIYGASTRAADIPDRFSGSGSGTEFTLTISSLQSEDFAVYYCQQYNSWPPLTFGGGTKVEIK
63.7 | 154 | 19 | 1.98 | 1.85 | 1.77 | 71.5 | 61 | 40596p1.D2 (scFv, V domains shown, tested as scFv-Fc supernatant) VH: EVQLLESGGGLVQPGGSLRLSCAASGFDFSKNAMSWVRQAPGKGLEYVAGSGWSGSFIFYADSVKGRSTVSRDNSENTLYLQMSSLRAEDTAVYYCAKNPGFGEMDVWGQGTTVTVSS VL: ELVLTQSPGSLFLSPGERATLTCRASQTIGSNLAWYQQKFGQAPRLLIYGASTRAADIPDRFSGSGSGTEFTLTISSLQSEDFAVYYCQQYNSWPPLTFGGGTKVEIK

Source: patent US20220306762A1 (CRYSTAL BIOSCIENCE, published 2022)
